Ends that are not written are not given here. * marks the point of attachment. C16 diacid = O=C(O)CCCCCCCCCCCCCCC(=O)*; Palmitoyl = CCCCCCCCCCCCCCCC(=O)*; Myristoyl = CCCCCCCCCCCCCC(=O)*
T1: human GIP receptor (human, UniProt P48546 22-466)
T1 construct: whole, on cells; also called hGIPR
T1 sequence (looked up): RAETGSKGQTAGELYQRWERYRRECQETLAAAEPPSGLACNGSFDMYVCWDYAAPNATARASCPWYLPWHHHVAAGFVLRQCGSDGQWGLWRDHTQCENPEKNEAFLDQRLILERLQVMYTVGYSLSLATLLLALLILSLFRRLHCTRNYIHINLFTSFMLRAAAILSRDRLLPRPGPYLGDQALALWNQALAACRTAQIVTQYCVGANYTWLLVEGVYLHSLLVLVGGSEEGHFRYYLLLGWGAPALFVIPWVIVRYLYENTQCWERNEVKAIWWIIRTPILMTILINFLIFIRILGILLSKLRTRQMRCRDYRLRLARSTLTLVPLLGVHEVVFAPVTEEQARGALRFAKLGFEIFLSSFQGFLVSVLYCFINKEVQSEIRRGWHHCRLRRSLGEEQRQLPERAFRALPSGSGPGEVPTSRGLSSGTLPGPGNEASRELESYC

B1: AT124 [hGIP(5-30)NH2-C16/5] (peptide)
peptide: Palmitoyl-TFISDYSIAMDKIHQQDFVNWLLAQK-NH2
SMILES: CCCCCCCCCCCCCCCC(=O)N[C@H](C(=O)N[C@@H](Cc1ccccc1)C(=O)N[C@H](C(=O)N[C@@H](CO)C(=O)N[C@@H](CC(=O)O)C(=O)N[C@@H](Cc1ccc(O)cc1)C(=O)N[C@@H](CO)C(=O)N[C@H](C(=O)N[C@@H](C)C(=O)N[C@@H](CCSC)C(=O)N[C@@H](CC(=O)O)C(=O)N[C@@H](CCCCN)C(=O)N[C@H](C(=O)N[C@@H](Cc1c[nH]cn1)C(=O)N[C@@H](CCC(N)=O)C(=O)N[C@@H](CCC(N)=O)C(=O)N[C@@H](CC(=O)O)C(=O)N[C@@H](Cc1ccccc1)C(=O)N[C@H](C(=O)N[C@@H](CC(N)=O)C(=O)N[C@@H](Cc1c[nH]c2ccccc12)C(=O)N[C@@H](CC(C)C)C(=O)N[C@@H](CC(C)C)C(=O)N[C@@H](C)C(=O)N[C@@H](CCC(N)=O)C(=O)N[C@@H](CCCCN)C(N)=O)C(C)C)[C@@H](C)CC)[C@@H](C)CC)[C@@H](C)CC)[C@@H](C)O
B2: AT172 [hGIP(5-30)NH2[Y10K]-C16diacid/10] (peptide)
peptide: TFISDK(C16 diacid)SIAMDKIHQQDFVNWLLAQK-NH2
modifications: N-terminus assumed
SMILES: CC[C@H](C)[C@H](NC(=O)[C@H](CO)NC(=O)[C@H](CCCCNC(=O)CCCCCCCCCCCCCCC(=O)O)NC(=O)[C@H](CC(=O)O)NC(=O)[C@H](CO)NC(=O)[C@@H](NC(=O)[C@H](Cc1ccccc1)NC(=O)[C@@H](N)[C@@H](C)O)[C@@H](C)CC)C(=O)N[C@@H](C)C(=O)N[C@@H](CCSC)C(=O)N[C@@H](CC(=O)O)C(=O)N[C@@H](CCCCN)C(=O)N[C@H](C(=O)N[C@@H](Cc1c[nH]cn1)C(=O)N[C@@H](CCC(N)=O)C(=O)N[C@@H](CCC(N)=O)C(=O)N[C@@H](CC(=O)O)C(=O)N[C@@H](Cc1ccccc1)C(=O)N[C@H](C(=O)N[C@@H](CC(N)=O)C(=O)N[C@@H](Cc1c[nH]c2ccccc12)C(=O)N[C@@H](CC(C)C)C(=O)N[C@@H](CC(C)C)C(=O)N[C@@H](C)C(=O)N[C@@H](CCC(N)=O)C(=O)N[C@@H](CCCCN)C(N)=O)C(C)C)[C@@H](C)CC
B3: AT169 [hGIP(5-30)NH2[I7K]-C16diacid/7] (peptide)
peptide: TFK(C16 diacid)SDYSIAMDKIHQQDFVNWLLAQK-NH2
modifications: N-terminus assumed
SMILES: CC[C@H](C)[C@H](NC(=O)[C@H](CO)NC(=O)[C@H](Cc1ccc(O)cc1)NC(=O)[C@H](CC(=O)O)NC(=O)[C@H](CO)NC(=O)[C@H](CCCCNC(=O)CCCCCCCCCCCCCCC(=O)O)NC(=O)[C@H](Cc1ccccc1)NC(=O)[C@@H](N)[C@@H](C)O)C(=O)N[C@@H](C)C(=O)N[C@@H](CCSC)C(=O)N[C@@H](CC(=O)O)C(=O)N[C@@H](CCCCN)C(=O)N[C@H](C(=O)N[C@@H](Cc1c[nH]cn1)C(=O)N[C@@H](CCC(N)=O)C(=O)N[C@@H](CCC(N)=O)C(=O)N[C@@H](CC(=O)O)C(=O)N[C@@H](Cc1ccccc1)C(=O)N[C@H](C(=O)N[C@@H](CC(N)=O)C(=O)N[C@@H](Cc1c[nH]c2ccccc12)C(=O)N[C@@H](CC(C)C)C(=O)N[C@@H](CC(C)C)C(=O)N[C@@H](C)C(=O)N[C@@H](CCC(N)=O)C(=O)N[C@@H](CCCCN)C(N)=O)C(C)C)[C@@H](C)CC
B4: AT170 [hGIP(5-30)NH2[S8K]-C16diacid/8] (peptide)
peptide: TFIK(C16 diacid)DYSIAMDKIHQQDFVNWLLAQK-NH2
modifications: N-terminus assumed
SMILES: CC[C@H](C)[C@H](NC(=O)[C@H](CO)NC(=O)[C@H](Cc1ccc(O)cc1)NC(=O)[C@H](CC(=O)O)NC(=O)[C@H](CCCCNC(=O)CCCCCCCCCCCCCCC(=O)O)NC(=O)[C@@H](NC(=O)[C@H](Cc1ccccc1)NC(=O)[C@@H](N)[C@@H](C)O)[C@@H](C)CC)C(=O)N[C@@H](C)C(=O)N[C@@H](CCSC)C(=O)N[C@@H](CC(=O)O)C(=O)N[C@@H](CCCCN)C(=O)N[C@H](C(=O)N[C@@H](Cc1c[nH]cn1)C(=O)N[C@@H](CCC(N)=O)C(=O)N[C@@H](CCC(N)=O)C(=O)N[C@@H](CC(=O)O)C(=O)N[C@@H](Cc1ccccc1)C(=O)N[C@H](C(=O)N[C@@H](CC(N)=O)C(=O)N[C@@H](Cc1c[nH]c2ccccc12)C(=O)N[C@@H](CC(C)C)C(=O)N[C@@H](CC(C)C)C(=O)N[C@@H](C)C(=O)N[C@@H](CCC(N)=O)C(=O)N[C@@H](CCCCN)C(N)=O)C(C)C)[C@@H](C)CC
B5: AT171 [hGIP(5-30)NH2[D9K]-C16diacid/9] (peptide)
peptide: TFISK(C16 diacid)YSIAMDKIHQQDFVNWLLAQK-NH2
modifications: N-terminus assumed
SMILES: CC[C@H](C)[C@H](NC(=O)[C@H](CO)NC(=O)[C@H](Cc1ccc(O)cc1)NC(=O)[C@H](CCCCNC(=O)CCCCCCCCCCCCCCC(=O)O)NC(=O)[C@H](CO)NC(=O)[C@@H](NC(=O)[C@H](Cc1ccccc1)NC(=O)[C@@H](N)[C@@H](C)O)[C@@H](C)CC)C(=O)N[C@@H](C)C(=O)N[C@@H](CCSC)C(=O)N[C@@H](CC(=O)O)C(=O)N[C@@H](CCCCN)C(=O)N[C@H](C(=O)N[C@@H](Cc1c[nH]cn1)C(=O)N[C@@H](CCC(N)=O)C(=O)N[C@@H](CCC(N)=O)C(=O)N[C@@H](CC(=O)O)C(=O)N[C@@H](Cc1ccccc1)C(=O)N[C@H](C(=O)N[C@@H](CC(N)=O)C(=O)N[C@@H](Cc1c[nH]c2ccccc12)C(=O)N[C@@H](CC(C)C)C(=O)N[C@@H](CC(C)C)C(=O)N[C@@H](C)C(=O)N[C@@H](CCC(N)=O)C(=O)N[C@@H](CCCCN)C(N)=O)C(C)C)[C@@H](C)CC
B6: AT122 [hGIP(5-30)NH2-C14/16] (peptide)
peptide: TFISDYSIAMDK(Myristoyl)IHQQDFVNWLLAQK-NH2
modifications: N-terminus assumed
SMILES: CCCCCCCCCCCCCC(=O)NCCCC[C@H](NC(=O)[C@H](CC(=O)O)NC(=O)[C@H](CCSC)NC(=O)[C@H](C)NC(=O)[C@@H](NC(=O)[C@H](CO)NC(=O)[C@H](Cc1ccc(O)cc1)NC(=O)[C@H](CC(=O)O)NC(=O)[C@H](CO)NC(=O)[C@@H](NC(=O)[C@H](Cc1ccccc1)NC(=O)[C@@H](N)[C@@H](C)O)[C@@H](C)CC)[C@@H](C)CC)C(=O)N[C@H](C(=O)N[C@@H](Cc1c[nH]cn1)C(=O)N[C@@H](CCC(N)=O)C(=O)N[C@@H](CCC(N)=O)C(=O)N[C@@H](CC(=O)O)C(=O)N[C@@H](Cc1ccccc1)C(=O)N[C@H](C(=O)N[C@@H](CC(N)=O)C(=O)N[C@@H](Cc1c[nH]c2ccccc12)C(=O)N[C@@H](CC(C)C)C(=O)N[C@@H](CC(C)C)C(=O)N[C@@H](C)C(=O)N[C@@H](CCC(N)=O)C(=O)N[C@@H](CCCCN)C(N)=O)C(C)C)[C@@H](C)CC

Columns and labels:
human GIP receptor [1] = biological target: T1, human GIP receptor; test: 125I-hGIP competition binding, COS-7/hGIPR, 2% HSA;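 also: nonspecific binding defined as radioligand binding to untransfected cells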
Procedure: (§1) After incubation, the cells were washed twice in ice-cold binding buffer (+/−2% HSA) and lysed using 200 mM NaOH with 1% SDS for 30 min. Nonspecific binding was determined as the binding of radioactive ligand to untransfected cells.

human GIP receptor [2] = biological target: T1, human GIP receptor; test: 125I-hGIP competition binding, COS-7/hGIPR, 0.1% casein;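 also: nonspecific binding defined as radioligand binding measured on untransfected cells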
Procedure: as §1

human GIP receptor [3] = biological target: T1, human GIP receptor; test: 125I-hGIP competition binding, COS-7 cells expressing hGIPR;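 also: nonspecific binding taken as radioligand bound by untransfected cells, binding buffer with or without 2% HSA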
Procedure: as §1

human GIP receptor [4] = biological target: T1, human GIP receptor; test: IC50 with 2% HSA over IC50 with 0.1% casein, 125I-hGIP competition, COS-7/hGIPR
Procedure: as §1

human GIP receptor [5] = biological target: T1, human GIP receptor; test: cell-based or functional assay

| Binder | IC50 (human GIP receptor [1]) | logIC50 (human GIP receptor [1]) | IC50 (human GIP receptor [2]) | logIC50 (human GIP receptor [2]) | IC50 (human GIP receptor [3]) | log IC50 (human GIP receptor [3]) | Fold change HSA (2%)/Casein (0.1%) (human GIP receptor [4]) | cAMP agonism, Emax (human GIP receptor [5]) | cAMP antagonism (human GIP receptor [5]) | cAMP antagonism, log (human GIP receptor [5]) |
| --- | --- | --- | --- | --- | --- | --- | --- | --- | --- | --- |
| B1 | 8240 nM | -5.1 log M | 1590 nM | -5.8 log M | 361 nM | -6.4 log M | 5.2 fold | – | – | – |
| TKISDYSIAMDKIHQQDFVNWLLAQK (C16-diacid fatty acyl on Lys 6 (GIP numbering); C-terminal amide) [AT168 [hGIP(5-30)NH2[F6K]-C16diacid/6]] | 100 nM | -7 log M | 50.1 nM | -7.3 log M | 48 nM | -7.3 log M | 2 fold | 0 | 96 nM | -7 log M |
| B2 | 955 nM | -6 log M | 251 nM | -6.6 log M | 252 nM | -6.6 log M | 3.8 fold | 0 | 259 nM | -6.6 log M |
| B3 | 166 nM | -6.8 log M | 28.8 nM | -7.5 log M | 28 nM | -7.5 log M | 5.8 fold | 0 | 37 nM | -7.4 log M |
| B4 | 1380 nM | -5.9 log M | 631 nM | -6.2 log M | 628 nM | -6.2 log M | 2.2 fold | 0 | 507 nM | -6.3 log M |
| B5 | 661 nM | -6.2 log M | 79.4 nM | -7.1 log M | 86 nM | -7.1 log M | 8.3 fold | 0 | 35 nM | -7.5 log M |
| B6 | 6080 nM | -5.2 log M | 1230 nM | -5.9 log M | 591 nM | -6.2 log M | 4.9 fold | – | – | – |

Reference: patent US20200087373A1 (UNIVERSITY OF COPENHAGEN, published 2020)
